Results on three molecules are retold here after US20240003880A1 (TRUSTEES OF COLUMBIA UNIVERSITY IN THE CITY OF NEW YORK, published 2024).

Assay [1] concerns the target T1, SARS-CoV-2 nucleocapsid phosphoprotein (SARS-CoV-2, UniProt P0DTC9 1-419). Put plainly: Western blot on NP denatured with DTT and heat (FIG. 4). In general terms: In western blotting, separated proteins are transferred to a membrane and probed.
Assay [2] concerns the target T1, SARS-CoV-2 nucleocapsid phosphoprotein. Put plainly: ELISA (FIG. 3). Background: ELISA stands for enzyme-linked immunosorbent assay.

B1: antibody 9-9 (antibody, V domains shown)
VH: EVQLVESGGGLVQPGGSLRLSCAASGFIFSNYWMSWVRQAPGKGLEWVANTKQDDSEKYYVDAVKGRFTISRDNAKNSLYLQMNSLRADDTAVYYCAREVRIAVTGTSRDEDYSYNGMDVWGQGTTVTVSS
VL: SYELTQPPSVSVSPGQTARITCSADALAKQYAYWYQQKPGQAPVLVIFKDSERPSGIPERFSGSSSGTTVTLTISRVQAEDEADYYCQSADSSGYYWAFGGGTKLTVL
In the case of B1, the binding result in assay [1] is “binds”.

B2: antibody 9-8 (antibody, V domains shown)
VH: EVQLVESGGGLVQPGGSLRLSCAASGFTFSTYWMSWVRQAPGKGLEWVANIKQDGSEKYYVDSVKGRFTISRDNAKNSLYLQMNSLRAEDTAVYYCARYSLDYYDTSGSFDYWGQGTLVAVSS
VL: SYELTQPPSVSVSPGQTARITCSGDALPKKYAYWYQQKSGQAPVLVIYEDSKRPSGIPERFSGSSSGTMATLTISGAQVEDEADYYCYSTDSSGNHRGVFGGGTQLTVL
As to B2, the binding result in assay [2] was “binds”.

B3: antibody 9-29 (antibody, V domains shown)
VH: EVQLVQSGAEVKKSGESLKISCKGSGYSFTNYWIGWVRQMPGKGLEWMGIIYPGDSDTRHSPSFQGQVTISADKSLRTAYLQWSSLKASDTAIYYCARGADGYSSYFDYWGQGTLVTVSS
VL: NFMLTQPHSVSESPGKTVIISCTRSSGSIASDYVQWYQQRPGSVPTTVIYEDNERPSGVPDRFSGSIDSSSNSASLTISGLKTEDEADYYCQSYDSSVQVFGGGTKLTVL
With B3, the binding result in assay [1] was “binds”.
